Measured values published in doi:10.1101/2024.04.02.587845.
pKd: −log10 of the molar value.

How the values were obtained:
[1] = target: GST-YFP-6His-PANT^R20A (Arabidopsis); test: MST
[2] = target: GST-YFP-6His-PANT^WT (PANT domain of Arabidopsis SRFR1) (Arabidopsis); test: MST

synthetic P1 peptide (P1 segment of IDR1 of SRFR1)
pKd [1]: 3.02
pKd [2]: 3.40
